# Results published in patent publication US20170165322A1 (CASE WESTERN RESERVE UNIVERSITY, published 2017).
# Biological target: T1, Fc control (Fc fusion partner alone) (human, UniProt P01857-1 100-330 = IgG part, limits assumed)
# T1 construct: domain: Fc; Control protein, 'prepared as described previously'
# Assay: in vivo homing; anti-human Fc immunofluorescence on frozen sections of urethane-induced mouse lung tumors, 2 h after i.p. injection
# Protocol: First, we tested if systemically administered ephrin-A1-Fc could home to urethane-induced lung tumors that overexpress EphA2. Lung tumors were induced in wild type mice with urethane. Twenty-five weeks later, mice were injected i.p. with 5 μg/g ephrin-A1-Fc. Fc fusion partner alone was used as control. Two hours after injection, mice were sacrificed, and tumors were dissected out; frozen sections were subject to immunofluorescence staining to detect whether there was a selective homing of ephrin-A1-Fc to tumor tissues relative to control Fc. […] Both FITC-conjugated donkey anti-Fc and Texas-Red-conjugated goat anti-human Fc antibodies yielded similar patterns of selective tumor homing.
binder,measurement,value
"EphA2 kinase of mouse (urethane-induced lung tumors, primary keratinocytes, MEF, mouse lung tumor cell lines) (receptor, UniProt Q03145 26-977, looked up, whole, on cells) KEVVLLDFAAMKGELGWLTHPYGKGWDLMQNIMDDMPIYMYSVCNVVSGDQDNWLRTNWVYREEAERIFIELKFTVRDCNSFPGGASSCKETFNLYYAESDVDYGTNFQKRQFTKIDTIAPDEITVSSDFEARNVKLNVEERMVGPLTRKGFYLAFQDIGACVALLSVRVYYKKCPEMLQSLARFPETIAVAVSDTQPLATVAGTCVDHAVVPYGGEGPLMHCTVDGEWLVPIGQCLCQEGYEKVEDACRACSPGFFKSEASESPCLECPEHTLPSTEGATSCQCEEGYFRAPEDPLSMSCTRPPSAPNYLTAIGMGAKVELRWTAPKDTGGRQDIVYSVTCEQCWPESGECGPCEASVRYSEPPHALTRTSVTVSDLEPHMNYTFAVEARNGVSGLVTSRSFRTASVSINQTEPPKVRLEDRSTTSLSVTWSIPVSQQSRVWKYEVTYRKKGDANSYNVRRTEGFSVTLDDLAPDTTYLVQVQALTQEGQGAGSKVHEFQTLSTEGSANMAVIGGVAVGVVLLLVLAGVGLFIHRRRRNLRARQSSEDVRFSKSEQLKPLKTYVDPHTYEDPNQAVLKFTTEIHPSCVARQKVIGAGEFGEVYKGTLKASSGKKEIPVAIKTLKAGYTEKQRVDFLSEASIMGQFSHHNIIRLEGVVSKYKPMMIITEYMENGALDKFLREKDGEFSVLQLVGMLRGIASGMKYLANMNYVHRDLAARNILVNSNLVCKVSDFGLSRVLEDDPEATYTTSGGKIPIRWTAPEAISYRKFTSASDVWSYGIVMWEVMTYGERPYWELSNHEVMKAINDGFRLPTPMDCPSAIYQLMMQCWQQERSRRPKFADIVSILDKLIRAPDSLKTLADFDPRVSIRLPSTSGSEGVPFRTVSEWLESIKMQQYTEHFMVAGYTAIEKVVQMSNEDIKRIGVRLPGHQKRIAYSLLGLKDQVNTVGIPI",binding result,no binding (tested: 2.5 µg/ml Fc control (i.p.))
